Changes are numbered by the printed parent chain. Each block holds one binder with its values, some of them ahead of it.
Tests used:
human MerTK-His protein [1] = molecular target: T1, human MerTK-His protein (human, UniProt Q12866 21-505); experiment: ELISA, human MerTK-His immobilized, same method
T1 construct: range 21-505; Made in ExpiCHO-S cells; also called protein of human MerTK fused with His tag
T1 sequence: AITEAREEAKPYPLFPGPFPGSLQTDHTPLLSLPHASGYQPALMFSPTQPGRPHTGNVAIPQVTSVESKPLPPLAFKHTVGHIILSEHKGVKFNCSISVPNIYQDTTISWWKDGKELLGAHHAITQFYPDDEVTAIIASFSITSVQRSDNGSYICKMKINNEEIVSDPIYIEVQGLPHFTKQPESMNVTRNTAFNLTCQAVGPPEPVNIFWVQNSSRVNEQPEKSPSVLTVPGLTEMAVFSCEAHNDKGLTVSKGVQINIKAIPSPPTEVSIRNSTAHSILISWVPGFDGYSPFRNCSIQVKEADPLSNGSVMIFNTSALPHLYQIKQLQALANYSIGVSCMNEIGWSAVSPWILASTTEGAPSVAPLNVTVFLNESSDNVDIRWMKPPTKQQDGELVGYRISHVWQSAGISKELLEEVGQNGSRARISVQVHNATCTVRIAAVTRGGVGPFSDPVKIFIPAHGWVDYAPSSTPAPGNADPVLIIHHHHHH

[2] = molecular target: misfolding-treated recombinant human TTR V30M protein (human, UniProt P02766 21-147); experiment: ELISA, misTTR immobilized at 2 µg/mL
[3] = molecular target: T2, human MerTK-human Fc fusion protein (human, UniProt Q12866 21-505); experiment: ELISA, human MerTK-Fc immobilized at 1 µg/mL
T2 construct: range 21-505; Made in ExpiCHO-S cells; also called human MerTK-Fc protein; MerTK-Fc fusion protein; not shown: human IgG1 Fc as encoded by the pFUSE-hIgG1-Fc1 vector (InvivoGen)
T2 sequence (looked up): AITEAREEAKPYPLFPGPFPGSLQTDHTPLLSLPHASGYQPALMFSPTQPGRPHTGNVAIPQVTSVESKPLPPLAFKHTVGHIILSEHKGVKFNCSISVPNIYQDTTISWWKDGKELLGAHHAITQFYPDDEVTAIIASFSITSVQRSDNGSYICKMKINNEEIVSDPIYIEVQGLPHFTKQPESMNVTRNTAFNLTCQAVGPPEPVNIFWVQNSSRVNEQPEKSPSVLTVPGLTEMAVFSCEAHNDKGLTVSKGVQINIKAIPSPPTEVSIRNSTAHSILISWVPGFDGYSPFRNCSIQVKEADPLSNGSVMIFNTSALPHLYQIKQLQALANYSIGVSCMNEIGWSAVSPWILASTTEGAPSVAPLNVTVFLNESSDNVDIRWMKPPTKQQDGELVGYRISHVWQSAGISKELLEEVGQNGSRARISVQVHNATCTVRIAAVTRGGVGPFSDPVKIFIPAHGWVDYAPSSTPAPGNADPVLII

[4] = molecular target: T3, mouse MerTK-human Fc fusion protein (mouse; human, UniProt Q60805 19-497); experiment: ELISA, MerTK protein immobilized at 1 µg/mL
T3 construct: range 19-497; Made in ExpiCHO-S cells; also called protein of mouse MerTK fused with human Fc; not shown: human IgG1 Fc as encoded by the pFUSE-hIgG1-Fc1 vector (InvivoGen)
T3 sequence (looked up): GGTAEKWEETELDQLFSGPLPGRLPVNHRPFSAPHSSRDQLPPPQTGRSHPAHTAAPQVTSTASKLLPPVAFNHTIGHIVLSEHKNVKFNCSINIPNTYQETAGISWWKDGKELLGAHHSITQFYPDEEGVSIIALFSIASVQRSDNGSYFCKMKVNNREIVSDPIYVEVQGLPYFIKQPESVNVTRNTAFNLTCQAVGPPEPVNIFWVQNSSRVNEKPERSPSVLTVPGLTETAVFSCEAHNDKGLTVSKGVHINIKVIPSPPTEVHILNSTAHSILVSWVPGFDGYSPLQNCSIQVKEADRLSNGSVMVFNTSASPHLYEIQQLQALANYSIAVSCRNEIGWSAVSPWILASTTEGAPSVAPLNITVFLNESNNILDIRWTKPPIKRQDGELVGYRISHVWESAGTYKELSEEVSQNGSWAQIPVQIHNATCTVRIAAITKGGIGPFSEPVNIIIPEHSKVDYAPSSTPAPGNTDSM

[5] = molecular target: T2, human MerTK-human Fc fusion protein; experiment: ELISA, MerTK protein immobilized at 1 µg/mL
human MerTK-His protein [6] = molecular target: T1, human MerTK-His protein; experiment: ELISA, human MerTK-His immobilized at 1 µg/mL

B1: tA3-20.3 (antibody, human IgG1, lambda, L234A L235A)
heavy: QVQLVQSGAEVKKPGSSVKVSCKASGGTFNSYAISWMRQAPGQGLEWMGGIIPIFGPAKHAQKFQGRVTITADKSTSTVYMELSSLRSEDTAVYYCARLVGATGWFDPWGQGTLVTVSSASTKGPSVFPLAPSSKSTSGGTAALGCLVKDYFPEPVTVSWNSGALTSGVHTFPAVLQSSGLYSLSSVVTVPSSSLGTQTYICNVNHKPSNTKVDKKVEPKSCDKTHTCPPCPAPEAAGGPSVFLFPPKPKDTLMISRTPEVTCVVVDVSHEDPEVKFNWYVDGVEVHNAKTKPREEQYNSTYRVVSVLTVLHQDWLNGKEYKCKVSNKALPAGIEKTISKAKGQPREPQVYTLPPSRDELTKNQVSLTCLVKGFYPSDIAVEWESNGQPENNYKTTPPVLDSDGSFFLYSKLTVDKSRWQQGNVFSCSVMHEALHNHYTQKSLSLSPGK
light: NFMLTQPHSVSESPGKTVNISCTRSSGSIATNYVQWYQQRPGSSPTTVIYEDNQRPSGVPDRFSGSIDSSSNSASLTISGLKTEDEAVYHCQSYDSSNVVFGGGTKLTVLGQPKAAPSVTLFPPSSEELQANKATLVCLISDFYPGAVTVAWKADSSPVKAGVETTTPSKQSNNKYAASSYLSLTPEQWKSHRSYSCQVTHEGSTVEKTVAPTECS
binding result (human MerTK-His protein [1]): binds

B2: tA3-20.5 (antibody, human IgG1, lambda, L234A L235A)
heavy: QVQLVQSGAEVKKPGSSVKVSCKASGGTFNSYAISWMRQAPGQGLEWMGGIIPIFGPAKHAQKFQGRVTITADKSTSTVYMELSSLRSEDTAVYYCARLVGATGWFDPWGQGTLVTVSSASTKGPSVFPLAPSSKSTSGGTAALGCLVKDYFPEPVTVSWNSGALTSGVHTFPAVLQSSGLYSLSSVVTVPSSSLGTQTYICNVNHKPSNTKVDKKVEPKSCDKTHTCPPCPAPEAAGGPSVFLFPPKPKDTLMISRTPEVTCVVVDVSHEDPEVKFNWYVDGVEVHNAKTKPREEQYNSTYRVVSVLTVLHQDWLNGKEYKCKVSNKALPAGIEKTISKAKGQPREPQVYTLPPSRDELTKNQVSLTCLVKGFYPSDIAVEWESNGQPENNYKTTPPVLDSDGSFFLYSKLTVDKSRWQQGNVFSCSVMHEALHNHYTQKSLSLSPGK
light: B1 light with N19S
binding result (human MerTK-His protein [1]): binds

B3: tA3-20.4 (antibody, human IgG1, lambda, L234A L235A)
heavy: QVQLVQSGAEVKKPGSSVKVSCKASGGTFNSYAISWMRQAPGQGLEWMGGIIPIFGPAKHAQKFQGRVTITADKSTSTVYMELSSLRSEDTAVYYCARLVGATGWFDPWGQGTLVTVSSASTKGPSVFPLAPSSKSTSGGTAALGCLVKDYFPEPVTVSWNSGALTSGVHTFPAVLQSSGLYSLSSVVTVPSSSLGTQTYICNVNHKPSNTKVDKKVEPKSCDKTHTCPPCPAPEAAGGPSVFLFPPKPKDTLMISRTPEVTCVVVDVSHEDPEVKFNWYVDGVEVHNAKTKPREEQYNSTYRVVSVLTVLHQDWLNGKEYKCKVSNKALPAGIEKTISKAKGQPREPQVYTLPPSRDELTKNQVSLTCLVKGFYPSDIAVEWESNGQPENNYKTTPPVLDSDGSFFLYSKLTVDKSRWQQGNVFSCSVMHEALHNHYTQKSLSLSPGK
light: B1 light with N19T
binding result (human MerTK-His protein [1]): binds

B4: tA-009 (bispecific antibody, mouse IgG2a)
heavy: QVQLVQSGAEVKKPGSSVKVSCKASGGTFNSYAISWMRQAPGQGLEWMGGIIPIFGPAKHAQKFQGRVTITADKSTSTVYMELSSLRSEDTAVYYCARLVGATGWFDPWGQGTLVTVSSAKTTAPSVYPLAPVCGDTTGSSVTLGCLVKGYFPEPVTLTWNSGSLSSGVHTFPAVLQSDLYTLSSSVTVTSSTWPSQSITCNVAHPASSTKVDKKIEPRGPTIKPCPPCKCPAPNAAGGPSVFIFPPKIKDVLMISLSPIVTCVVVDVSEDDPDVQISWFVNNVEVHTAQTQTHREDYNSTLRVVSALPIQHQDWMSGKEFKCKVNNKDLAAPIERTISKPKGSVRAPQVYVLPPPEKEMTKKQVSLTCLVKDFMPEDIYVEWTNNGKTELNYKNTEPVLKSDGSYFMYSKLTVEKKNWVERNSYSCSVVHEGLHNHHTTKSFSRTPGK
light: NFMLTQPHSVSESPGKTVNISCTRSSGSIATNYVQWYQQRPGSSPTTVIYEDNQRPSGVPDRFSGSIDSSSNSASLTISGLKTEDEAVYHCQSYDSSNVVFGGGTKLTVLGQPKSSPSVTLFPPSSEELETNKATLVCTITDFYPGVVTVDWKVDGTPVTQGMETTQPSKQSNNKYMASSYLTLTARAWERHSSYSCQVTHEGHTVEKSLSRADCS
chain: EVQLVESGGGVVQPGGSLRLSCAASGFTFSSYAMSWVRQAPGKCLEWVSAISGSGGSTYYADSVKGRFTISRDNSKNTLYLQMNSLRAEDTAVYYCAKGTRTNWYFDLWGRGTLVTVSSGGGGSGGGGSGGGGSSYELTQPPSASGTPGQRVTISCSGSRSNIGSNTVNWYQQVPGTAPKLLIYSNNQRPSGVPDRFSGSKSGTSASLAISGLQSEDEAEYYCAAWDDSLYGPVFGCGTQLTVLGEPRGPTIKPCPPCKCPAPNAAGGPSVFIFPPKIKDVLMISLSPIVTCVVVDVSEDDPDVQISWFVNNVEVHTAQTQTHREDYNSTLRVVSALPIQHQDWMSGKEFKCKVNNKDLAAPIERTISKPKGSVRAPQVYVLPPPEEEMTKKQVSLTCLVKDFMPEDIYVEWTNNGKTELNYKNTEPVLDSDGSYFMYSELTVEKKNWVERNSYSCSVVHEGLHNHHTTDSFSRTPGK
notes: also called mouse-type anti-MerTK-anti-TTR bispecific antibody
binding result [2]: binds
binding result [3]: binds

B5: tA3-20 (antibody, human IgG1, lambda, L234A L235A)
heavy: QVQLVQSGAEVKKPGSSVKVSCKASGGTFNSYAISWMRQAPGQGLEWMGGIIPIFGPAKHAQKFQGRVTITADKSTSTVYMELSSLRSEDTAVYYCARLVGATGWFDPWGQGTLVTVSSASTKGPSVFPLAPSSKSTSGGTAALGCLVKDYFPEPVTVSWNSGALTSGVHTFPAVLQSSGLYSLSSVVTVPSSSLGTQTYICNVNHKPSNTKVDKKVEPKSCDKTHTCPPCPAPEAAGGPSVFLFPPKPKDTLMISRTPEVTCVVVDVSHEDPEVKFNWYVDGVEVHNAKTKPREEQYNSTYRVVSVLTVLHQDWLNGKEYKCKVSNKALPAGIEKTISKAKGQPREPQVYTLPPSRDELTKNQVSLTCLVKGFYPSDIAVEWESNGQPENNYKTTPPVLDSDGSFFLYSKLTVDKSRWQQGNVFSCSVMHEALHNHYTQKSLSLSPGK
light: FMLTQPHSVSESPGKTVNISCTRSSGSIATNYVQWYQQRPGSSPTTVIYEDNQRPSGVPDRFSGSIDSSSNSASLTISGLKTEDEAVYHCQSYDSSNVVFGGGTKLTVLGQPKAAPSVTLFPPSSEELQANKATLVCLISDFYPGAVTVAWKADSSPVKAGVETTTPSKQSNNKYAASSYLSLTPEQWKSHRSYSCQVTHEGSTVEKTVAPTECS
notes: human lambda constant region; also called fully human anti-MerTK antibody; anti-MerTK agonist antibody tA3-20
binding result [4]: binds
binding result [5]: binds
binding result (human MerTK-His protein [6]): binds

Other lines, results leading:

binding result (human MerTK-His protein [6]): binds
B6: tA3-20.2 (antibody, human IgG1, lambda, L234A L235A)
heavy: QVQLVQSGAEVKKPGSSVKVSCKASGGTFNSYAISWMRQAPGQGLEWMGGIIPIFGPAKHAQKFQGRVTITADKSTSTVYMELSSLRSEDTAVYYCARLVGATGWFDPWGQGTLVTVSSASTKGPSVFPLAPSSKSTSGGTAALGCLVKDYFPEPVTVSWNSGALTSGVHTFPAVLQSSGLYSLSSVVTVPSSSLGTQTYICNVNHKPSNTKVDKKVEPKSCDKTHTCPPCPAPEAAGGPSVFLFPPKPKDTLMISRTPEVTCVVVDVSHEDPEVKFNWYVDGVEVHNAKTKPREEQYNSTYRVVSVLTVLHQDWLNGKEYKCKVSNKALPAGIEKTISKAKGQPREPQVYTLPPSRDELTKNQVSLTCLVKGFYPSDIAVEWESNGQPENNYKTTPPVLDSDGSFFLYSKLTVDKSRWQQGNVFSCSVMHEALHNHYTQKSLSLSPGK
light: B5 light with N18S

binding result (human MerTK-His protein [6]): binds
B7: tA3-20.1 (antibody, human IgG1, lambda, L234A L235A)
heavy: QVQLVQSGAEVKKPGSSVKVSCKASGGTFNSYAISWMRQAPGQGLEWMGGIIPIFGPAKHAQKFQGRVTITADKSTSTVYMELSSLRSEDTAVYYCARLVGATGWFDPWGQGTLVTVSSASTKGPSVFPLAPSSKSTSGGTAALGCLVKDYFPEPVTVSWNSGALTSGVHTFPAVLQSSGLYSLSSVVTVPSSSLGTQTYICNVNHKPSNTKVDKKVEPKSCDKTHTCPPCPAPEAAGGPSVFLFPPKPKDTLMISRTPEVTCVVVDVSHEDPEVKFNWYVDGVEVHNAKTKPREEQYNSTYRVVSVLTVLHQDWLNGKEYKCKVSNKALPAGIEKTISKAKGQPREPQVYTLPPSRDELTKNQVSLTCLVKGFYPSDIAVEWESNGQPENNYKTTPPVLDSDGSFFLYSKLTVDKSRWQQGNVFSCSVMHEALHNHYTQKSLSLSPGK
light: B5 light with N18T

Source: patent EP4786497A1 (Astellas Pharma Inc., dated 2026)
